Data on 23 substances can be found in US20050014193A1, “Identification of target-specific folding sites in peptides and proteins” (priority 2003, published 2005).

One assay concerns the target T1, oxytocin receptor (Rattus norvegicus, UniProt P70536).
T1 construct: cell membranes prepared from rat uterus; from tissue; host or cells: rat uterus membranes
T1 sequence (P70536 1-388): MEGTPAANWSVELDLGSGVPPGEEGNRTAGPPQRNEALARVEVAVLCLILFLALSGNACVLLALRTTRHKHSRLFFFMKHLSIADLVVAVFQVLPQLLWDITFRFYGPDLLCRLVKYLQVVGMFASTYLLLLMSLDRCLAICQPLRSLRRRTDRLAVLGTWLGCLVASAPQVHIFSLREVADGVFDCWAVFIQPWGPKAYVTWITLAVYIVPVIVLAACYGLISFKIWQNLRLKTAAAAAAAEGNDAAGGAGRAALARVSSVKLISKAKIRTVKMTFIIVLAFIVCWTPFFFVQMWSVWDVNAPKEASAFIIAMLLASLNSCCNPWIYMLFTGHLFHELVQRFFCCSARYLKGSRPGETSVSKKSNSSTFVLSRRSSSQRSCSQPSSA
The assay is described as follows: 3H-oxytocin binding inhibition, rat uterus cell membranes. To be noted: for % Inhibition at 1 μM Oxytocin Receptor (Table 30) / % Inhibition at 1 μM Oxytocin Receptor (Table 29): rat uterus membranes, Re-complexed; for activity at oxytocin receptor: within the Table 30 series. The method, then:
The screening of metallopeptides for binding to oxytocin receptor was done using cell membranes prepared from rat uterus. […] The membrane preparations (10-50 μg/well) were incubated with […] ^3H-oxytocin in HEPES Buffer containing 0.2% bovine serum albumin along with a test compound (1 μM final assay concentration) for 2 hours at 4° C. Non-specific binding was determined by addition of 10^−6 M oxytocin instead of the test compound. After incubation, the membranes were filtered and washed three times with ice-cold PBS. The membranes were air-dried and punched directly into scintillation vials. After addition of the scintillation cocktail, the vials were capped and gently shaken for 12 hours to dissolve the radioactivity contained in the filters. The vials were then read for tritium counts in a scintillation counter. Specific binding was determined as the radioactivity in wells containing ^3H-oxytocin alone minus the radioactivity in wells containing 10^−6 M oxytocin. The assay was performed in triplicates. The activity profile for the test compounds were generated by their ability to inhibit specific binding of the radiotracer to its receptor.

The next assay has as its target T2, vasopressin-1 receptor (Rattus norvegicus, UniProt P30560).
T2 construct: cell membranes prepared from rat liver; from tissue; host or cells: rat liver membranes
The assay is described as follows: 3H-vasopressin-1 antagonist binding inhibition, rat liver cell membranes. The following applies: Re-complexed. Here is the method: The screening of compounds for vasopressin-1 receptor was performed using cell membranes prepared from rat liver. The assay was essentially performed as described above for the oxytocin receptor assay. In this assay 2-4 nM ^3H-vasopressin-1 antagonist (obtained from Perkin Elemer-NEN Life Sciences) was used as the radiotracer and Arg^8-vasopressin (1 μM final concentration in the assay) was used to determine non-specific binding. The assay was performed in triplicates. Activity profile for the test compounds were generated by their ability to inhibit specific binding of the radiotracer to its receptor.

A further assay concerns the target T3, angiotensin-II receptor (Homo sapiens, UniProt P30556).
T3 construct: cell membranes obtained from human neuroblastoma cells (KAN-TS); endogenous in cells; host or cells: KAN-TS human neuroblastoma cells (membranes)
T3 sequence (P30556 1-359): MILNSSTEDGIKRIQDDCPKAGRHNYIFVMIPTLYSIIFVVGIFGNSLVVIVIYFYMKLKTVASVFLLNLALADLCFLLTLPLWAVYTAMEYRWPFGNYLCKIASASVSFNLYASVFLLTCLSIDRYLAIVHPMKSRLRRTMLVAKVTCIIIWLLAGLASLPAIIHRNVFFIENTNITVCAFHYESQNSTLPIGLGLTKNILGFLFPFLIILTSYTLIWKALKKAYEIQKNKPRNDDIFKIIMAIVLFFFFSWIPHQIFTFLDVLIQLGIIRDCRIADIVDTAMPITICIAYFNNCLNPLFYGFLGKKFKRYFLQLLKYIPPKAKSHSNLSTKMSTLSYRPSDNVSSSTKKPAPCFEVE
The experiment in a line: 125I-Tyr4,Sar1,Ile8-Angiotensin II binding inhibition, human neuroblastoma (KAN-TS) cell membranes. The following applies: for % Inhibition at 1 μM (Angiotensin Receptor): KAN-TS cell membranes, Re-complexed. The method, then: The screening of compounds for binding to the angiotensin-II receptor was performed using cell membranes obtained from human neuroblastoma cells (KAN-TS). The assay was performed in triplicates, generally as described in Example 4 for oxytocin, except for measurement of receptor bound radioactivity. For angiotensin, a radioiodinated tracer ligand was used (instead of a tritiated ligand), which radioiodinated tracer facilitated direct measurement of bound radioactivity using a gamma counter. A final 1-3 nM concentration of ^125I-Tyr^4, Sar^1, Ile^8-Angiotensin II ligand (obtained from Perkin Elemer-NEN Life Sciences) was used as radiotracer and angiotensin-II (1 μM final assay concentration) was used to measure non-specific binding. After filtration of the incubation medium, followed by washings, drying the filters and punching the filters into test tubes, the filters were counted for radioactivity in a gamma counter. An activity profile for the test compounds was generated by ability to inhibit specific binding of the radiotracer to its receptor.

Square brackets hold non-standard residues; d marks the D form. Ends that are not written are not given here. dChg = N[C@@H](C(=O)O)C1CCCCC1; Chg = N[C@H](C(=O)O)C1CCCCC1; Orn = NCCC[C@H](N)C(=O)O; Dap = NC[C@H](N)C(=O)O; Sar = CNCC(=O)O

T2 sequence (P30560 whole entry): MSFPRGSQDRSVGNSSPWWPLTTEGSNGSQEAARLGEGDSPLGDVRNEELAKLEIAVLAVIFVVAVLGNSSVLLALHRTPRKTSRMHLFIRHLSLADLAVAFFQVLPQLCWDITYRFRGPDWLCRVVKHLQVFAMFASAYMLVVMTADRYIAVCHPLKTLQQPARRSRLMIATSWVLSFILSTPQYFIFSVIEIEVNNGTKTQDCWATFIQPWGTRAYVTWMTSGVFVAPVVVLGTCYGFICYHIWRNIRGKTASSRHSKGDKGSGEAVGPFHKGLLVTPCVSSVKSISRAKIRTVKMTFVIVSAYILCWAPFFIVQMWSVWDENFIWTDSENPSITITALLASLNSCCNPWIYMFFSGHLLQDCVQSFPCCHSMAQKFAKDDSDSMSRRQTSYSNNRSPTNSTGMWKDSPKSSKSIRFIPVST

“Ala-Tyr-Cys-Ile-Gln-Asn-Ala-Pro-Leu-Gly-NH2 (AYCIQNAPLG-NH2; not fully specified (bridges); printed as Ala-Tyr-Cys-Ile-Gln-Asn-Ala-Pro-Leu-Gly-NH2; also: oxorhenium(V) N3S1 metal chelate (Re=O)) [SEQ ID NO:158]”: the % Inhibition (as a rule, the drop in the measured response relative to a control, in per cent) at 1 μM Oxytocin Receptor (Table 30) with oxytocin receptor came out at 6%. The “% Inhibition at 1 μM Vasopressin-1 Receptor (Table 30)” value in the assay with vasopressin-1 receptor amounted to 1%.

“Ala-Tyr-Ile-Cys-Gln-Asn-Ala-Pro-Leu-Gly-NH2 (AYICQNAPLG-NH2; not fully specified (bridges); printed as Ala-Tyr-Ile-Cys-Gln-Asn-Ala-Pro-Leu-Gly-NH2; also: oxorhenium(V) N3S1 metal chelate (Re=O)) [SEQ ID NO:157]”: the “% Inhibition at 1 μM Oxytocin Receptor (Table 30)” value with oxytocin receptor stood at 0%. In addition, the “% Inhibition at 1 μM Vasopressin-1 Receptor (Table 30)” value with vasopressin-1 receptor stood at 0%. Regarding “Ala-Tyr-Ile-Gln-Asn-Ala-Ala-Cys-Leu-Gly-NH2 (AYIQNAACLG-NH2; not fully specified (bridges); printed as Ala-Tyr-Ile-Gln-Asn-Ala-Ala-Cys-Leu-Gly-NH2; also: oxorhenium(V) N3S1 metal chelate (Re=O)) [SEQ ID NO:152]”, the “% Inhibition at 1 μM Oxytocin Receptor (Table 30)” value in the assay with oxytocin receptor amounted to 0%. For the same substance, the “% Inhibition at 1 μM Vasopressin-1 Receptor (Table 30)” value with vasopressin-1 receptor amounted to 1%. The matching figures for “Ala-Tyr-Ile-Gln-Asn-Ala-Ala-Leu-Cys-Gly-NH2 (AYIQNAALCG-NH2; not fully specified (bridges); printed as Ala-Tyr-Ile-Gln-Asn-Ala-Ala-Leu-Cys-Gly-NH2; also: oxorhenium(V) N3S1 metal chelate (Re=O)) [SEQ ID NO:151]”: 0% and 0%. The matching figures for “Ala-Tyr-Ile-Gln-Asn-Ala-Ala-Leu-Gly-Cys-NH2 (AYIQNAALGC-NH2; not fully specified (bridges); printed as Ala-Tyr-Ile-Gln-Asn-Ala-Ala-Leu-Gly-Cys-NH2; also: oxorhenium(V) N3S1 metal chelate (Re=O)) [SEQ ID NO:150]”: 0% and 0%. On to “Ala-Tyr-Ile-Gln-Asn-Ala-Cys-Ala-Leu-Gly-NH2 (AYIQNACALG-NH2; not fully specified (bridges); printed as Ala-Tyr-Ile-Gln-Asn-Ala-Cys-Ala-Leu-Gly-NH2; also: oxorhenium(V) N3S1 metal chelate (Re=O)) [SEQ ID NO:154]”, for which, in the assay with oxytocin receptor, the “activity at oxytocin receptor” value is “also active”. Moreover, the “% Inhibition at 1 μM Vasopressin-1 Receptor (Table 30)” value with vasopressin-1 receptor came to 0%. In the case of “Ala-Tyr-Ile-Gln-Asn-Ala-Cys-Pro-Leu-Gly-NH2 (AYIQNACPLG-NH2; not fully specified (bridges); printed as Ala-Tyr-Ile-Gln-Asn-Ala-Cys-Pro-Leu-Gly-NH2; also: oxorhenium(V) N3S1 metal chelate (Re=O)) [SEQ ID NO:153]”, in the assay with oxytocin receptor, the “% Inhibition at 1 μM Oxytocin Receptor (Table 30)” value is 2%. The “% Inhibition at 1 μM Vasopressin-1 Receptor (Table 30)” value with vasopressin-1 receptor is recorded as 0%. In the case of “Ala-Tyr-Ile-Gln-Asn-Ala-Pro-Leu-Gly-Cys-NH2 (AYIQNAPLGC-NH2; not fully specified (bridges); printed as Ala-Tyr-Ile-Gln-Asn-Ala-Pro-Leu-Gly-Cys-NH2; also: oxorhenium(V) N3S1 metal chelate (Re=O)) [SEQ ID NO:149]”, the “% Inhibition at 1 μM Oxytocin Receptor (Table 30)” value with oxytocin receptor stood at 6%. For the same substance, the “% Inhibition at 1 μM Vasopressin-1 Receptor (Table 30)” value with vasopressin-1 receptor is given as 0%. In the case of “Ala-Tyr-Ile-Gln-Asn-Cys-Ala-Pro-Leu-Gly-NH2 (AYIQNCAPLG-NH2; not fully specified (bridges); printed as Ala-Tyr-Ile-Gln-Asn-Cys-Ala-Pro-Leu-Gly-NH2; also: oxorhenium(V) N3S1 metal chelate (Re=O)) [SEQ ID NO:155]”, in the assay with oxytocin receptor, the “activity at oxytocin receptor” value is on record as “maximal activity”. Moreover, in the assay with vasopressin-1 receptor, the “% Inhibition at 1 μM Vasopressin-1 Receptor (Table 30)” value is listed as 0%. The matching figures for “Ala-Tyr-Ile-Gln-Cys-Asn-Ala-Pro-Leu-Gly-NH2 (AYIQCNAPLG-NH2; not fully specified (bridges); printed as Ala-Tyr-Ile-Gln-Cys-Asn-Ala-Pro-Leu-Gly-NH2; also: oxorhenium(V) N3S1 metal chelate (Re=O)) [SEQ ID NO:156]”: “also active” and 0%. Consider “Caca-D-Trp-Ile-Cys-Thr-Dap-Ala-Pro-Orn-NH2”, for which the “% Inhibition at 1 μM Oxytocin Receptor (Table 29)” value on oxytocin receptor was found to be 0%.

On to “Caca-D-Trp-Ile-Thr-Cys-Dap-Ala-Pro-Orn-NH2”, for which, at oxytocin receptor, the “% Inhibition at 1 μM Oxytocin Receptor (Table 29)” value is 0%. Besides, the “% Inhibition at 1 μM Vasopressin-1 Receptor (Table 29)” value at vasopressin-1 receptor amounted to 0%. With “Caca-D-Trp-Ile-Thr-Dap-Ala-Ala-Cys-Orn-NH2”, the “% Inhibition at 1 μM Oxytocin Receptor (Table 29)” value on oxytocin receptor turned out to be 0%. In addition, at vasopressin-1 receptor, the “% Inhibition at 1 μM Vasopressin-1 Receptor (Table 29)” value came to 0%.

As to “Caca-D-Trp-Ile-Thr-Dap-Ala-Ala-Orn-Cys-NH2”, the “% Inhibition at 1 μM Oxytocin Receptor (Table 29)” value on oxytocin receptor was determined as 0%. For “Caca-D-Trp-Ile-Thr-Dap-Ala-Cys-Ala-Orn-NH2”, the “% Inhibition at 1 μM Oxytocin Receptor (Table 29)” value at oxytocin receptor came to 0%. The “% Inhibition at 1 μM Vasopressin-1 Receptor (Table 29)” value on vasopressin-1 receptor was found to be 0%.

Turning to “Caca-D-Trp-Ile-Thr-Dap-Ala-Cys-Pro-Orn-NH2”, on oxytocin receptor, the “% Inhibition at 1 μM Oxytocin Receptor (Table 29)” value came out at 0%. Also, on vasopressin-1 receptor, the “% Inhibition at 1 μM Vasopressin-1 Receptor (Table 29)” value is 0%.

“Caca-D-Trp-Ile-Thr-Dap-Cys-Ala-Pro-Orn-NH2”: the “% Inhibition at 1 μM Oxytocin Receptor (Table 29)” value at oxytocin receptor worked out at 9%. In the case of “Pmp-D-Trp-Cys-Ile-Thr-Dap-Ala-Pro-Orn-NH2”, the “% Inhibition at 1 μM Oxytocin Receptor (Table 29)” value on oxytocin receptor was 0%. Consider “Sar-Arg-Cys-Val-Tyr-Ile-His-Pro-Thr ([Sar]RCVYIHPT; not fully specified (bridges); printed as Sar-Arg-Cys-Val-Tyr-Ile-His-Pro-Thr; also: oxorhenium(V) N3S1 metal chelate (Re=O)) [SEQ ID NO:165]”, for which the “% Inhibition at 1 μM (Angiotensin Receptor)” value in the assay with angiotensin-II receptor is on record as 1%. Turning to “Sar-Arg-Val-Cys-Tyr-Ile-His-Pro-Thr ([Sar]RVCYIHPT; not fully specified (bridges); printed as Sar-Arg-Val-Cys-Tyr-Ile-His-Pro-Thr; also: oxorhenium(V) N3S1 metal chelate (Re=O)) [SEQ ID NO:164]”, the “% Inhibition at 1 μM (Angiotensin Receptor)” value in the assay with angiotensin-II receptor came to 1%. Take “Sar-Arg-Val-Tyr-Ile-His-Cys-Gly-Thr ([Sar]RVYIHCGT; not fully specified (bridges); printed as Sar-Arg-Val-Tyr-Ile-His-Cys-Gly-Thr; also: oxorhenium(V) N3S1 metal chelate (Re=O)) [SEQ ID NO:166]”: the “percent inhibition at angiotensin receptor compared” value in the assay with angiotensin-II receptor (Gly for Pro substitution) was “significantly less than in SEQ ID NO:161”. Take [Chg][dW]CIT[Dap]AP[Orn]-NH2: the “% Inhibition at 1 μM Oxytocin Receptor (Table 29)” value on oxytocin receptor was found to be 0%. Further, the “% Inhibition at 1 μM Vasopressin-1 Receptor (Table 29)” value on vasopressin-1 receptor was 0%. Regarding [dChg][dW]CIT[Dap]AP[Orn]-NH2, the “% Inhibition at 1 μM Oxytocin Receptor (Table 29)” value at oxytocin receptor is recorded as 0%. The “% Inhibition at 1 μM Vasopressin-1 Receptor (Table 29)” value on vasopressin-1 receptor turned out to be 8%.
